Data taken from patent publication US20160303255, “COMPOSITIONS AND METHODS FOR TREATMENT OF MUSCULAR DYSTROPHY” (CONSIGLIO NAZIONALE DELLE RICHERCHE, published 2016).

Biological target: JZif1 (artificial (human Zif268/EGR1 derived), UniProt P18146 SEQ:1-543)
Test: cell_activity; luciferase induction in HeLa, pXP-Luc (about 318 bp human utrophin promoter A); also active in C2C7 (FIG. 8)
Settings: tags: none
Description: To investigate the ability of JZif1, JZif2, Vp16-CJ7-UtroUp, Vp16-Bagly and Vp16-Jazz to upregulate (i.e., increase) expression from the utrophin promoter “A”, their ability to drive expression of a luciferase reporter gene placed downstream of a utrophin promoter “A” fragment was tested.
To test the ability of these artificial transcription factors to increase expression from the utrophin promoter “A” in human cells, HeLa cells were co-transfected with a plasmid carrying JZif1, JZif2, Vp16-CJ7-UtroUp, Vp16-Bagly or Vp16-Jazz under control of the cytomegalovirus (CMV) promoter together with the luciferase reporter construct plasmid pXP-Luc (pXP). JZif1, JZif2, Vp16-CJ7-UtroUp, Vp16-Bagly and Vp16-Jazz were each able to increase luciferase expression relative to controls (FIG. 7). […] By comparison, no increase in luciferase expression was detected when the pXP plasmid was co-transfected with a plasmid carrying the zinc finger domain of Jazz without a transcriptional activation domain, with a plasmid carrying the genomically-encoded human transcription factor Zif268's transcription activation domain without its zinc finger motifs, or with a plasmid carrying the transcriptional activation domain of Vp16 without a zinc finger DNA binding domain, which served as controls (FIG. 7). […]

JZif1, sequence (P18146 other isoform, or with tags, fused parts or gaps): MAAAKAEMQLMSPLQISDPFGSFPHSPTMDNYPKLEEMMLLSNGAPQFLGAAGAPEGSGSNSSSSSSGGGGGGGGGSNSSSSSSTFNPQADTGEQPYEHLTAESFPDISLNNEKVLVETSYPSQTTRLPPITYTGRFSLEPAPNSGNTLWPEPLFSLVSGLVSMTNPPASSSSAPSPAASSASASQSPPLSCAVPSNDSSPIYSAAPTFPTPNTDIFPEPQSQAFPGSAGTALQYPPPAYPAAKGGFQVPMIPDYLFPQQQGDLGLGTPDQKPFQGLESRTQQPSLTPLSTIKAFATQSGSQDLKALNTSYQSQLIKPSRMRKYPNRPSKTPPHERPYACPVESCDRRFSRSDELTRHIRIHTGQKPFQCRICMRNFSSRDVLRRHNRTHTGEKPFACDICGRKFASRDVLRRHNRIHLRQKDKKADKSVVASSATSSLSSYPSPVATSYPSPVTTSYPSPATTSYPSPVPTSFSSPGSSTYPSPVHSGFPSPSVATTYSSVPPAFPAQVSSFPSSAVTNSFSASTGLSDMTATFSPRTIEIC

B1: Jazz/JZif1 target in human utrophin promoter A (dsDNA)
DNA 1: GCTGCTGCG
DNA 2: CGCAGCAGC
In the case of B1, the activity is reported as over 20 fold.
